Source: the supplement of paper PMC10724198
± gives the standard deviation of the averaged measurements.

Columns and labels:
[1] = test system: Saccharomyces cerevisiae; experiment: protein stability index of tFT-peptide fusion (C-terminal peptide) (PSI (0-1 scale)); higher = more stable (slower turnover)
Method: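 MPS profiling in S. cerevisiae of the tFT-X12 degron library: putative degron peptides plus stable controls, 12 aa, fused to the C-terminus of a sfGFP-mCherry timer. Cells are FACS-sorted into 8 mCherry/sfGFP bins and deep-sequenced. PSI runs from 0 (unstable) to 1 (stable). Backgrounds are wild type, das1Δ and doa10Δ at 30 °C, and wild type, das1Δ, cdc34-1 and cdc53-1 at 37 °C; 2-3 technical replicates each.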

[2] = test system: Saccharomyces cerevisiae; experiment: as above; conditions: genetic background: wild type; temperature: 30 C
[3] = genetic background: cdc34-1, temperature: 37 C
[4] = genetic background: cdc53-1, temperature: 37 C
[5] = genetic background: das1 deletion, temperature: 30 C
[6] = genetic background: das1 deletion, temperature: 37 C
[7] = genetic background: doa10 deletion, temperature: 30 C
[8] = genetic background: wild type, temperature: 30 C
[9] = genetic background: wild type, temperature: 37 C
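Also: PSI is a weighted mean of sequencing reads over stability bins, variants kept only with over 10 reads, mCherry proximal and sfGFP distal, peptide attached via GGGS linker.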

Sequence: CMIACYALLRLL
- protein stability index [1, 3]: 0.176 ± 0.023
- protein stability index [1, 4]: 0.256 ± 0.011
- protein stability index [1, 5]: 0.346 ± 0.036
- protein stability index [1, 6]: 0.477 ± 0.0079
- protein stability index [1, 7]: 0.0799 ± 0.021
- protein stability index [1, 8]: 0.0777 ± 0.016
- protein stability index [1, 9]: 0.0702 ± 0.0087
- protein stability index [2]: 0.11 ± 0.039

Sequence: CPALYMPPPVLV
- protein stability index [1, 3]: 0.114 ± 0.036
- protein stability index [1, 4]: 0.13 ± 0.012
- protein stability index [1, 5]: 0.191 ± 0.026
- protein stability index [1, 6]: 0.238 ± 0.01
- protein stability index [1, 7]: 0.14 ± 0.03
- protein stability index [1, 8]: 0.182 ± 0.015
- protein stability index [1, 9]: 0.215 ± 0.0041
- protein stability index [2]: 0.2594 ± 0.0017

Sequence: CPPPPPSLLLLC
- protein stability index [1, 3]: 0.531 ± 0.025
- protein stability index [1, 4]: 0.6762 ± 0.0035
- protein stability index [1, 5]: 0.591 ± 0.012
- protein stability index [1, 6]: 0.666 ± 0.011
- protein stability index [1, 7]: 0.168 ± 0.0086
- protein stability index [1, 8]: 0.19 ± 0.013
- protein stability index [1, 9]: 0.29753 ± 0.00015
- protein stability index [2]: 0.223 ± 0.0038

Sequence: CRLCVFGVWFCG
- protein stability index [1, 3]: 0.532 ± 0.033
- protein stability index [1, 4]: 0.535 ± 0.012
- protein stability index [1, 5]: 0.443 ± 0.018
- protein stability index [1, 6]: 0.5751 ± 0.0034
- protein stability index [1, 7]: 0.448 ± 0.037
- protein stability index [1, 8]: 0.412 ± 0.022
- protein stability index [1, 9]: 0.5405 ± 0.0014
- protein stability index [2]: 0.499 ± 0.033

Sequence: CSPAFRPIVFVL
- protein stability index [1, 3]: 0.2771 ± 0.00097
- protein stability index [1, 4]: 0.2732 ± 0.00067
- protein stability index [1, 5]: 0.301 ± 0.026
- protein stability index [1, 6]: 0.407 ± 0.013
- protein stability index [1, 7]: 0.1802 ± 0.00032
- protein stability index [1, 8]: 0.163 ± 0.016
- protein stability index [1, 9]: 0.176 ± 0.0079
- protein stability index [2]: 0.225 ± 0.013

Sequence: CSVPLGVFAIVV
- protein stability index [1, 3]: 0.463 ± 0.0057
- protein stability index [1, 4]: 0.471 ± 0.032
- protein stability index [1, 5]: 0.382 ± 0.028
- protein stability index [1, 6]: 0.514 ± 0.0019
- protein stability index [1, 7]: 0.347 ± 0.0035
- protein stability index [1, 8]: 0.365 ± 0.038
- protein stability index [1, 9]: 0.4894 ± 0.0029
- protein stability index [2]: 0.48 ± 0.019

Sequence: CSYPTLSMYSTT
- protein stability index [1, 3]: 0.673 ± 0.068
- protein stability index [1, 4]: 0.766 ± 0.038
- protein stability index [1, 5]: 0.655 ± 0.013
- protein stability index [1, 6]: 0.718 ± 0.017
- protein stability index [1, 7]: 0.665 ± 0.007
- protein stability index [1, 8]: 0.645 ± 0.013
- protein stability index [1, 9]: 0.71 ± 0.011
- protein stability index [2]: 0.74 ± 0.072

Sequence: CTFFCICVFFLL
- protein stability index [1, 3]: 0.349 ± 0.019
- protein stability index [1, 4]: 0.413 ± 0.025
- protein stability index [1, 5]: 0.339 ± 0.027
- protein stability index [1, 6]: 0.463 ± 0.0064
- protein stability index [1, 7]: 0.267 ± 0.012
- protein stability index [1, 8]: 0.281 ± 0.022
- protein stability index [1, 9]: 0.4 ± 0.0063
- protein stability index [2]: 0.392 ± 0.042

Sequence: CTLVVGLFVLVV
- protein stability index [1, 3]: 0.168 ± 0.02
- protein stability index [1, 4]: 0.315 ± 0.022
- protein stability index [1, 5]: 0.209 ± 0.034
- protein stability index [1, 6]: 0.375 ± 0.024
- protein stability index [1, 7]: 0.168 ± 0.0065
- protein stability index [1, 8]: 0.216 ± 0.028
- protein stability index [1, 9]: 0.322 ± 0.0064
- protein stability index [2]: 0.362 ± 0.0094

Sequence: CVGLYCLFVLLG
- protein stability index [1, 3]: 0.289 ± 0.0046
- protein stability index [1, 4]: 0.357 ± 0.0088
- protein stability index [1, 5]: 0.273 ± 0.034
- protein stability index [1, 6]: 0.449 ± 0.019
- protein stability index [1, 7]: 0.172 ± 0.0049
- protein stability index [1, 8]: 0.161 ± 0.018
- protein stability index [1, 9]: 0.278 ± 0.0049
- protein stability index [2]: 0.248 ± 0.004

Sequence: CVISLVTAVRLF
- protein stability index [1, 3]: 0.514 ± 0.023
- protein stability index [1, 4]: 0.5526 ± 0.0029
- protein stability index [1, 5]: 0.453 ± 0.022
- protein stability index [1, 6]: 0.589 ± 0.019
- protein stability index [1, 7]: 0.405 ± 0.028
- protein stability index [1, 8]: 0.426 ± 0.026
- protein stability index [1, 9]: 0.544 ± 0.018
- protein stability index [2]: 0.4644 ± 0.0021

Sequence: DDVRFLLWGLCC
- protein stability index [1, 3]: 0.48 ± 0.022
- protein stability index [1, 4]: 0.459 ± 0.018
- protein stability index [1, 5]: 0.398 ± 0.024
- protein stability index [1, 6]: 0.5595 ± 0.0051
- protein stability index [1, 7]: 0.183 ± 0.0027
- protein stability index [1, 8]: 0.218 ± 0.019
- protein stability index [1, 9]: 0.3644 ± 0.0027
- protein stability index [2]: 0.324 ± 0.027

Sequence: DQPLWIGVLAYC
- protein stability index [1, 3]: 0.434 ± 0.04
- protein stability index [1, 4]: 0.4712 ± 0.00085
- protein stability index [1, 5]: 0.31 ± 0.04
- protein stability index [1, 6]: 0.502 ± 0.011
- protein stability index [1, 7]: 0.272 ± 0.0047
- protein stability index [1, 8]: 0.325 ± 0.013
- protein stability index [1, 9]: 0.487 ± 0.022
- protein stability index [2]: 0.455 ± 0.025

Sequence: DRRYIISLIYIL
- protein stability index [1, 3]: 0.32 ± 0.022
- protein stability index [1, 4]: 0.5045 ± 0.0033
- protein stability index [1, 5]: 0.369 ± 0.023
- protein stability index [1, 6]: 0.576 ± 0.035
- protein stability index [1, 7]: 0.0892 ± 0.014
- protein stability index [1, 8]: 0.0874 ± 0.015
- protein stability index [1, 9]: 0.105 ± 0.0088
- protein stability index [2]: 0.113 ± 0.059

Sequence: DSGMLDFLLMAW
- protein stability index [1, 3]: 0.541 ± 0.039
- protein stability index [1, 4]: 0.545 ± 0.015
- protein stability index [1, 5]: 0.432 ± 0.035
- protein stability index [1, 6]: 0.57175 ± 0.00049
- protein stability index [1, 7]: 0.421 ± 0.011
- protein stability index [1, 8]: 0.451 ± 0.013
- protein stability index [1, 9]: 0.53 ± 0.0056
- protein stability index [2]: 0.598 ± 0.16

Sequence: DSTLLYRPPSPA
- protein stability index [1, 3]: 0.672 ± 0.032
- protein stability index [1, 4]: 0.713 ± 0.02
- protein stability index [1, 5]: 0.646 ± 0.019
- protein stability index [1, 6]: 0.7252 ± 0.0017
- protein stability index [1, 7]: 0.651 ± 0.021
- protein stability index [1, 8]: 0.637 ± 0.02
- protein stability index [1, 9]: 0.683 ± 0.022
- protein stability index [2]: 0.7089 ± 0.0008

Sequence: DVVVIFGILCYC
- protein stability index [1, 3]: 0.0711 ± 0.0034
- protein stability index [1, 4]: 0.16 ± 0.0049
- protein stability index [1, 5]: 0.156 ± 0.045
- protein stability index [1, 6]: 0.3173 ± 0.0014
- protein stability index [1, 7]: 0.125 ± 0.014
- protein stability index [1, 8]: 0.15 ± 0.032
- protein stability index [1, 9]: 0.263 ± 0.0032
- protein stability index [2]: 0.267 ± 0.013

Sequence: DYRCWCAILVSS
- protein stability index [1, 3]: 0.162 ± 0.0075
- protein stability index [1, 4]: 0.187 ± 0.0085
- protein stability index [1, 5]: 0.207 ± 0.029
- protein stability index [1, 6]: 0.3345 ± 0.0016
- protein stability index [1, 7]: 0.146 ± 0.013
- protein stability index [1, 8]: 0.172 ± 0.032
- protein stability index [1, 9]: 0.246 ± 0.013
- protein stability index [2]: 0.2611 ± 0.00049

Sequence: DYSVIPSLALLP
- protein stability index [1, 3]: 0.692 ± 0.013
- protein stability index [1, 4]: 0.73118 ± 3.3e-05
- protein stability index [1, 5]: 0.657 ± 0.028
- protein stability index [1, 6]: 0.733 ± 0.015
- protein stability index [1, 7]: 0.669 ± 0.022
- protein stability index [1, 8]: 0.673 ± 0.0088
- protein stability index [1, 9]: 0.714 ± 0.02
- protein stability index [2]: 0.218 ± 0.021

Sequence: ECLRLTTKKKIN
- protein stability index [1, 3]: 0.581 ± 0.079
- protein stability index [1, 4]: 0.733 ± 0.069
- protein stability index [1, 5]: 0.657 ± 0.055
- protein stability index [1, 6]: 0.704 ± 0.032
- protein stability index [1, 7]: 0.133 ± 0.0031
- protein stability index [1, 8]: 0.146 ± 0.039
- protein stability index [1, 9]: 0.197 ± 0.088
- protein stability index [2]: 0.173 ± 0.011
